Measured values as given in patent publication US20210215708A1 (University of California, published 2021).

Target: BD1-EGFP-HOTag6 (UniProt O60885 44-168)
Assay: cell-based or functional assay

B1: CRBN-EGFP-HOTag3 (other, not shown: large carriers)
chain: MAGEGDQQDAAHNMGNHLPLLPAESEEEDEMEVEDQDSKEAKKPNIINFDTSLPTSHTYLGADMEEFHGRTLHDDDSCQVIPVLPQVMMILIPGQTLPLQLFHPQEVSMVRNLIQKDRTFAVLAYSNVQEREAQFGTTAEIYAYREEQDFGIEIVKVKAIGRQRFKVLELRTQSDGIQQAKVQILPECVLPSTMSAVQLESLNKCQIFPSKPVSREDQCSYKWWQKYQKRKFHCANLTSWPRWLYSLYDAETLMDRIKKQLREWDENLKDDSLPSNPIDFSYRVAACLPIDDVLRIQLLKIGSAIQRLRCELDIMNKCTSLCCKQCQETEITTKNEIFSLSLCGPMAAYVNPHGYVHETLTVYKACNLNLIGRPSTEHSWFPGYAWTVAQCKICASHIGWKFTATKKDMSPQKFWGLTRSALLPTIPDTEDEISPDKVILCLGEIAKSLKEIAKSLKEIAWSLKEIAKSLKG
brightness of the EGFP droplets after ARV-825: 10 fold
